Source: paper PMC3793935
The star is where a group is joined. NH(3-CONH2-4-NO2-Ph) = NC(=O)c1cc(N*)ccc1[N+](=O)[O-]

Target: T1, GS-SplD, recombinant SplD protease containing the Gly-Ser dipeptide at the N-terminus (Staphylococcus aureus strain 8325-4) (UniProt Q2FXC5)
T1 sequence: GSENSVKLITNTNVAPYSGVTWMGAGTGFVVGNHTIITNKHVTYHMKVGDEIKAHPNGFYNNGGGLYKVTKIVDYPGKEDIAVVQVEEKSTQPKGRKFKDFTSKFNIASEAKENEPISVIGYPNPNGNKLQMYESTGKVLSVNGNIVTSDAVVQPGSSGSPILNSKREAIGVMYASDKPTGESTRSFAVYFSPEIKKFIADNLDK

Binder: {ABZ}-WLTS-{NH(3-CONH2-4-NO2-Ph)-NH2} [ABZ-Trp-Leu-Thr-Ser-ANB-NH2]
- Km of hydrolysis of the fluorescence-quenched peptide substrate by wild type SplD: 14.7 µM

Binder: {ABZ}-WLVS-{NH(3-CONH2-4-NO2-Ph)-NH2} [ABZ-Trp-Leu-Val-Ser-ANB-NH2]
- Km of hydrolysis of the fluorescence-quenched peptide substrate by wild type SplD: 31.1 µM
